Source: publication PMC12041390, “Nanobody-mediated targeting of Plasmodium falciparum PfPIMMS43 can block malaria transmission in mosquitoes” (Communications Biology, 2025)

B1: PfPIMMS43 nanobody C12 (VHH)
VHH: EVQLVESGGGLVQAGGSLRLSCVDSGRTLSSYTMGWFRQAPGKEREFVAAVHYTGRRTYYADSVKGRFTISRDNDKNTVLLQMNSLKPEDTAVYYCAATEPPHSDYSTRLYNYHYWGQGTQVTVSS
notes: llama VHH; From an immune llama library (Eurogentec, pQ81 phagemid)
B2: PfPIMMS43 nanobody G9 (VHH)
VHH: EVQLVESGGGLVQAGGSLRLSCAASEGTFSDYGMGWFRQAPGKEREFVASISWSGGRTGYRSSVKGRFTISRDNAKNTVYLQMNSLKPEDTAVYYCGAMSKYYRGDWSSRVTNYDDWGQGTQVTVSS
notes: llama VHH; From an immune llama library (Eurogentec, pQ81 phagemid); CDR3 of 20 amino acids
B3: PfPIMMS43 nanobody A3 (VHH)
VHH: EVQLVESGGGLVQPGGSLRLSCAASGSIFDKNGMGWFRQPPGRQRELVASITTDGNKHYGDDAKGRFTISRDIAKKTAYLQMNSLKPEDTAVYYCATTRGNYYSKSPPPIYDYYYWGQGTQVTVSS
notes: llama VHH; From an immune llama library (Eurogentec, pQ81 phagemid); CDR2 of 7 amino acids
B4: PfPIMMS43 nanobody E1 (VHH)
VHH: EVQLVESGGGLVQAGDSLRLSCAASDSTFSIYVMGWFRQAPGKEREFVAAITGSGGNTNYADSVKGRFTVSRDNAKHTVYLQMNSLKPEDAAVYYCAAGGSYSRSSLNYPYWGQGTQVTVSS
notes: as for B1
B5: PfPIMMS43 nanobody E5 (VHH)
VHH: EVQLVESGGGLVQAGGSLRLSCAASGIHFNFKAMAWYRQAPGKQRELVAAIAPDDDTNYADSVKGRFTISRDNAKNTVYLQMNSLKPEDTAVYYCNTRIRIDYWGQGTQVTVSS
notes: llama VHH; From an immune llama library (Eurogentec, pQ81 phagemid); CDR2 of 7 and CDR3 of 8 amino acids
B6: PfPIMMS43 nanobody A5 (VHH)
VHH: EVQLVESGGGLVQAGVSLRLSCAASGRSLSNYAMGWFRQAPGKEREFVASITGSGSSTYYLNSVKGRFIISKDNAKNTVYLQMNSLKPEDTAVYYCAADSTGVARYTNRYDYWGQGTRVTVSS
notes: as for B1
B7: PfPIMMS43 nanobody B11 (VHH)
VHH: EVQLVESGGGLVRAGDSLRLSCAASGTPLSSYTMGWFRQAPGKEREFVAASCWRGGSAYDADSIEGRFTISRDNAKNTVYLQMNSLKPEDTAVYYCAAVFAYICSSYGNRSPSRYGYWGQGTQVTVSS
notes: as for B1
B8: PfPIMMS43 nanobody H6 (VHH)
VHH: EVQLVESGGALVQAGNSLRLSCAASGRTFRSYVMGWFRQAPEKEREFVARIGWSAGSTYYTDSVKGRFTISRDDAKNTVYLQMNSLKPEDTAVYYCAAGRGYSDYDPSVGYGYWGQGTQVTVSS
notes: as for B1
B9: PfPIMMS43 nanobody E2 (VHH)
VHH: EVQLVESGGGLVQAGGSLRLSCAASGLTFNGDSMGWFRQAPGKEREFVAAIRWNEVAYYADFVKGRFTISRDNAKNTVTLQMNSLKPEDTAVYYCGAGVRAYSYTTRLTSASEYTYWGQGTQVTVSS
notes: as for B3

Molecular target: T1, endogenous PfPIMMS43 produced by P. falciparum NF54 ookinetes (Plasmodium falciparum NF54 (entry 3D7, …, UniProt C6KT40))
T1 construct: PfPIMMS43 (PSOP25) of Plasmodium falciparum NF54, a 505-amino acid protein with an N-terminal signal peptide and a C-terminal GPI anchor; seen as a ~60 kDa band; GPI-anchored surface protein of ookinetes; also called ~60 kDa PfPIMMS43 protein; PSOP25; source: endogenous, lysate of P. falciparum NF54-infected An. coluzzii midguts, 18 h post blood feeding
T1 sequence (C6KT40 25-505): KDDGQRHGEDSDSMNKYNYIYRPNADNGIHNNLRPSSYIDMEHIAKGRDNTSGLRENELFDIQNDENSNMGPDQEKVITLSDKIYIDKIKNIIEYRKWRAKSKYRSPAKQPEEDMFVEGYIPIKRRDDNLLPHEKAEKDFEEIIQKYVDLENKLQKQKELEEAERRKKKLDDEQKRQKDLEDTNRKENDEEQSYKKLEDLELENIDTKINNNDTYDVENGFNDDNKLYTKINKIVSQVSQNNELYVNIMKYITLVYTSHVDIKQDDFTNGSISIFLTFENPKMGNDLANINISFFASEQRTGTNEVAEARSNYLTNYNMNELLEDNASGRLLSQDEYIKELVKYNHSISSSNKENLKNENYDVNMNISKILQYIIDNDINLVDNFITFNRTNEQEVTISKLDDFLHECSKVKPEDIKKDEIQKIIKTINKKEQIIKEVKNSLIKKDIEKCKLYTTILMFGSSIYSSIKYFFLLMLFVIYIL
Test: far-Western, overlay or dot blot; reduced lysates of P. falciparum NF54-infected An. coluzzii midguts (18 h post blood meal) on 10% SDS-PAGE, blotted to PVDF, probed with nanobody, detected with anti-MYC antibody; non-infected blood-fed midguts as control
Conditions: one partner purified

Row | Binder | binding result
1 | B1 | binds

Molecular target: T2, recombinant Thioredoxin-His-tagged PfPIMMS43 (amino acids 26-481), full-length (FL) recombinant PfPIMMS43 (Plasmodium falciparum, 3D7 entry (NF54 …, UniProt C6KT40))
T2 construct: PfPIMMS43 (PSOP25) of Plasmodium falciparum, a 505-amino acid protein; E. coli codon-optimised; the methods give 25-481; pET-32b vector; Results give 26-481, methods 25-481; also called TRX-His-PfPIMMS43; PSOP25; not shown: Thioredoxin (TRX), N-terminal, kept; His6, N-terminal, kept; His6, C-terminal, kept
T2 sequence (C6KT40 26-481): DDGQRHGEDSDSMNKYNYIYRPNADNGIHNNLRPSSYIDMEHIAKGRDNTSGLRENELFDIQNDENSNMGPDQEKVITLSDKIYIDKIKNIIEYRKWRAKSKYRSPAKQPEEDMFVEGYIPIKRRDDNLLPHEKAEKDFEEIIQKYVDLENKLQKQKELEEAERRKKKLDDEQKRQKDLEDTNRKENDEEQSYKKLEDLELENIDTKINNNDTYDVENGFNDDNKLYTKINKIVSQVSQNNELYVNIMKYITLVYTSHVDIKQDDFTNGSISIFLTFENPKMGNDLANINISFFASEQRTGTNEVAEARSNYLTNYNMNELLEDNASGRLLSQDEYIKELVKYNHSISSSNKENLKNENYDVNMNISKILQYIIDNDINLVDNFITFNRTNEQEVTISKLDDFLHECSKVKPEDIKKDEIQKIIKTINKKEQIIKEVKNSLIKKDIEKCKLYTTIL
Test: ELISA; dose response ELISA; MaxiSorp plates coated with 2 ug/mL recombinant PfPIMMS43 in PBS overnight, blocked with 4% skimmed milk; VHH from 1000 nM in serial 1:10 dilutions, 1 h at room temperature; detected with rabbit anti-VHH and donkey anti-rabbit HRP, OPD, 490 nm
Conditions: both partners purified

Row | Binder | binding affinity (dose response ELISA) [nM]
2 | B2 | 3
3 | B3 | > 50
4 | B1 | 6
5 | B4 | > 50
6 | B5 | 5
7 | B6 | > 50
8 | B7 | > 50
9 | B8 | > 50
10 | B9 | 8
